Where two headings read alike, the source gives them in different places. Where no end group is shown, it is not given here. The star is where a group is joined. Biotin = O=C1N[C@H]2[C@H](CS[C@H]2CCCCC(=O)*)N1
Columns and labels:
aggregated dGAE [1] = target: T1, aggregated dGAE (human, UniProt P10636 614-708, limits assumed); assay: ELISA, direct immobilisation, SDS + Triton treated dGAE aggregates
T1 construct: dGAE aggregated in vitro with DTT, 700 rpm, 37 C, 24 h; also called dGAE aggregates; dGAE agg

aggregated dGAE [2] = target: T1, aggregated dGAE; assay: sandwich ELISA, S1D12 mAb capture, SDS + Triton treated dGAE aggregates
Protocol: (§1) For aggregation, 1000 μL 100 μM dGAE+10 μL 10 mM DTT was added to a ‘LoBind’ microfuge tubes and agitated at 700 RPM/37° C. for 24 hours. Resulting sample centrifuged at 17,000×g/4° C. for 60 min and supernatant discarded to remove left over monomer. Pellet resuspended in half the original volume for future experiments and hereafter referred to as ‘aggregates’. 1 μl of aggregates was added to 1 ml of PBS and SDS was added to a final concentration of 1% (w/v). This was left to incubate on lab bench for 1 h with gentle agitation every 15 minutes. In order to neutralize the SDS effect on ELISA, Triton X-100 added to a final concentration of 3% (v/v) and mixed gently by pipetting to prevent any bubble formation. […] Similarly aggregates treated with only SDS or Triton X-100, untreated aggregates, dGAE monomers treated with only SDS or SDS+Titon X-100 were also added to designated wells as controls. All samples were then double diluted across the plate in final volumes of 100 μl. The final column was left with no protein to act as a blank.

dGAE (tau 297-391) [3] = target: T2, dGAE (tau 297-391) (human, UniProt P10636 614-708); assay: sandwich ELISA, 423 mAb capture, dGAE titrated, scAb at 10 µg/ml [D00039 Figure 34 cont. F]
T2 construct: monomer; also called dGAE95

[4] = target: T3, tau parent peptide 367-379 (GNKKIETHKLTFR) (human); assay: ELISA on biotinylated peptide over streptavidin
T3 peptide: Biotin-GNKKIETHKLTFR

tau fragment 337-368 = tau fragment 337-368 (human); assay: direct ELISA
[5] = target: T4, full length human tau protein 2N4R (hT40) (human, UniProt P10636 1-758); assay: sandwich ELISA, S1D12 mAb capture, scAb detection
T4 construct: recombinant; also called T441
Procedure, shortened: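 Read-out was HRP anti-HuCk with absorbance at 450 nm (positive above 0.3 after background subtraction) or chemiluminescence, including directly HRP-conjugated scAbs.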
Target sequence in this assay (P10636 other isoform, or with tags, fused parts or gaps limits assumed): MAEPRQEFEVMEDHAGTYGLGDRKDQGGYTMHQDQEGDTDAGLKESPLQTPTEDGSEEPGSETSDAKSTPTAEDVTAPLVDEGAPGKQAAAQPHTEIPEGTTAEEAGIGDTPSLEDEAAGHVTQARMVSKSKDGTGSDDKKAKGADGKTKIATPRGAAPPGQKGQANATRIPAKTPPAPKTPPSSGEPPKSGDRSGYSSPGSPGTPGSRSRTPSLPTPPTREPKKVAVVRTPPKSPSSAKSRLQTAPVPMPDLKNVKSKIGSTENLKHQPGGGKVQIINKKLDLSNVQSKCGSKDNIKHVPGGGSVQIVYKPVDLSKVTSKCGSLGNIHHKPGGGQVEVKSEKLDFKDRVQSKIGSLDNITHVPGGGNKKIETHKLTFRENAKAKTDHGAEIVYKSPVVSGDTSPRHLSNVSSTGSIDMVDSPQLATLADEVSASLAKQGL

tau fragment 186-350 = target: T5, tau fragment 186-350 (human, UniProt P10636 503-667); assay: direct ELISA
T5 construct: also called m186-350

aggregated dGAE [6] = target: T1, aggregated dGAE; assay: sandwich ELISA, Triton-treated aggregates titrated, S1D12 mAb capture
Protocol: as §1

dGA (tau 297-390) = dGA (tau 297-390) (human, UniProt P10636 614-707); assay: SPR, scAb captured, tau analyte
Procedure, shortened: (§2)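 scAb captured on flow cell 2 of an antibody-coated chip, flow cell 1 as reference; tau analyte injected 120 s association, 420 s dissociation, glycine pH 2.0 regeneration, in multi-cycle or single-cycle kinetics format. Responses fitted to a 1:1 binding model for kinetics and affinity.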

[7] = target: T4, full length human tau protein 2N4R …; assay: SPR, scAb captured, tau analyte
Procedure, shortened: as §2
Target sequence in this assay (P10636 other isoform, or with tags, fused parts or gaps limits assumed): as above

tau fragment 369-391 = target: T6, tau fragment 369-391 (human); assay: direct ELISA
T6 peptide: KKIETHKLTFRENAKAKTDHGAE

[8] = target: T4, full length human tau protein 2N4R …; assay: SPR, summary table
Protocol: The capture antibody was diluted 1/100 in 10 mM Sodium acetate buffer pH 5.0 and passed over the activated chip surface for a period of at least 420 s. Final ligand immobilisation levels over 12,000 RU were deemed to be satisfactory.
The scAb to be tested was added only to flow cell 2 so that flow cell 1 could act as a control to subtract any interaction with the analyte and the chip surface. […] The multi-cycle protocol was as follows-Three start-up cycles composed of an initial capture, to the desired level, of the scAb to be tested was performed followed by a 30 s injection of glycine buffer pH 2.0 after each cycle to regenerate the chip surface. […] The target was added for a 120 s association period and 420 s dissociation period followed by another regeneration, 30 s injection of glycine buffer pH 2.0 in between each cycle.
The single cycle kinetics protocol was similar and utilised the same level of scAb capture. […] In single cycle kinetics the regeneration step was performed only after the final analyte concentration was added. Binding responses were analysed in Biacore X100 evaluation software and data fitted to a 1:1 binding model to obtain kinetic and affinity characterisation.
Target sequence in this assay (P10636 other isoform, or with tags, fused parts or gaps limits assumed): as the sequence (P10636 other isoform, or with tags, fused parts or gaps limits assumed) above

[9] = target: T4, full length human tau protein 2N4R …; assay: Biacore
Procedure, shortened: as §2
Target sequence in this assay (P10636 other isoform, or with tags, fused parts or gaps limits assumed): as the sequence (P10636 other isoform, or with tags, fused parts or gaps limits assumed) above

tau fragment 369-390 = target: T7, tau fragment 369-390 (human); assay: direct ELISA
T7 peptide: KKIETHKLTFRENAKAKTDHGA

[10] = target: T4, full length human tau protein 2N4R …; assay: hT40 ELISA
Target sequence in this assay (P10636 other isoform, or with tags, fused parts or gaps limits assumed): as the sequence (P10636 other isoform, or with tags, fused parts or gaps limits assumed) above

[11] = target: T4, full length human tau protein 2N4R …; assay: hT40 ELISA; remark: listed apart in the source
Protocol: (§3) A series of binding ELISA was performed using various truncated versions of the tau protein and 13mer peptide libraries spanning the entire hT40 molecule for mapping the epitopes of anti-tau scAbs (Full list of protein antigens used is given in Table 14). In general, ELISA plates were coated with 1 μg/ml hT40 or dGA or dGAE or other truncated versions of the protein and in the case of biotinylated peptides, plates were coated with 5 μg/ml Streptavidin followed by 1 μg/ml biotinylated peptide. The plates were blocked with 2% MPBS and scAb samples added at desired starting concentrations and double diluted across the plate. Binding was detected using anti-Human C Kappa HRP conjugated secondary antibody and the resulting immunoreaction was developed and absorbance values measured as described above.

[12] = target: T4, full length human tau protein 2N4R …; assay: hT40 ELISA; remark: listed apart in the source
tau fragment 1-111 = tau fragment 1-111 (human, UniProt P10636 1-111); assay: direct ELISA
Protocol: as §3

tau fragment 1-49 = target: T8, tau fragment 1-49 (human); assay: direct ELISA
T8 construct: also called Tau 1-49
T8 peptide: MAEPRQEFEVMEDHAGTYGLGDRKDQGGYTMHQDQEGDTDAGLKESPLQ
Protocol: as §3

[13] = target: T4, full length human tau protein 2N4R …; assay: hT40 ELISA; remark: listed apart in the source
Target sequence in this assay (P10636 other isoform, or with tags, fused parts or gaps limits assumed): as the sequence (P10636 other isoform, or with tags, fused parts or gaps limits assumed) above

[14] = target: T9, tau parent peptide 319-331 (TSKCGSLGNIHHK); assay: ELISA on biotinylated peptide over streptavidin
T9 peptide: Biotin-TSKCGSLGNIHHK
Protocol: (§4) Briefly, 5 μg/ml streptavidin (Thermo Fisher) was adsorbed to Nunc 96-well MaxiSorp plates and following incubation at 37° C. for 1 h, the plates were washed as normal and blocked with 2% MPBS. N-terminally biotinylated peptides (Prolmmune Ltd) were added to the plates and incubated for 1 h at 37° C. Subsequently, test scAbs at starting concentrations of 100-500 nM was added and double diluted across the plate for each peptide and incubated for 1 h at 37° C. Rest of the ELISA was conducted as described above and the plates were read at absorbance 450 nm. Immunoreactivity of the scAb of interest was quantified as the % of scAb was bound for each peptide at a chosen concentration (FIG. 15-20).

[15] = target: T10, tau parent peptide 355-367 (GSLDNITHVPGGG); assay: ELISA on biotinylated peptide over streptavidin
T10 peptide: Biotin-GSLDNITHVPGGG
Protocol: as §4

dGAE (tau 297-391) [16] = target: T2, dGAE (tau 297-391); assay: sandwich ELISA, 423 mAb capture, dGAE titrated, scAb at 10 µg/ml

dGA (tau 297-390), sequence (P10636 614-707 limits assumed): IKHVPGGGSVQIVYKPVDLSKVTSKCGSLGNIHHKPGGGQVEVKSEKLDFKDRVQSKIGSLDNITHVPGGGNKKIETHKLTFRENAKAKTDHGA
tau fragment 337-368 (human), sequence (peptide, as listed by the source): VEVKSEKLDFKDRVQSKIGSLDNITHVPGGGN
T5 sequence (P10636 503-667): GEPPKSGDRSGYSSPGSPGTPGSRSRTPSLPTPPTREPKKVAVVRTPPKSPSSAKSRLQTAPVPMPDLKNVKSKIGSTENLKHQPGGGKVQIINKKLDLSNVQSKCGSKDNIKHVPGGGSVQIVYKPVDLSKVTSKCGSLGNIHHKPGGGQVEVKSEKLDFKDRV

Binder | LoD (aggregated dGAE [1]) [ng/mL] | LoD (aggregated dGAE [2]) [ng/mL] | LoD chemiluminescence detection [5] [ng/mL] | LoD colourimetric detection [5] [ng/mL] | Kd [7] [nM] | koff [7] [s⁻¹] | kon [7] [M⁻¹ s⁻¹] | Kd [8] [nM] | Kd [9] [nM] | further results
CA9 scAb (scFv, not shown: small tags and cut ends, scAb) scFv: QVQLQESGPSLVKPSQTLSLTCTVSGFSLTSNSVGWVRQAPGKAPEWVAGIDTDGEEGYNPALNSRLSITRDTSKSQVSLSLSSVTSEDTAVYYCGRSYRSDGLAYGYVQAIDYWGPGLLVTVSSEGKSSGASGESKVDDQAVLTQPASVSGSLGQRVSITCSGSFIGISSVGWFQQLPGSGLRTIIVASDGRPSGVPDRFSMSKSGNTATLTISSLQAEDEADYFCGSSDRTQYTGVFGSGTRLTVLG | 40 | 4 | – | – | – | – | – | – | – | EC50 (read off the curve) (dGAE (tau 297-391) [3]): ~0.2 µg/mL
S1G2 scAb (scFv, not shown: small tags and cut ends, scAb) scFv: QVQLQESGPSLVKPSQTLSLTCTVSGFSLTSNSVGWVRQAPGKAPEWVAGIDTDGEEGYNPALNSRLSITRDTSKSQVSLSLSSVTSEDTAVYYCGRSYRADGLAYGYVQAIDYWGPGLLVTVSSEGKSSGASGESKVDDQAVVTQPSSVSGSLGQRVSITCSGSFIGISSVGWFQQLPGSGLRTIIVASDGRPSGVPDRFSMSKSGNTATLTISSLQAEDEADYFCGSSDRTPYTGVFGSGTRLTVLG | 16 | 2 | 0.12 | 2 | 0.17 | 0.00018 | 1.06e+06 | 0.17 | 0.6 | EC50 (read off the curve) [4]: ~10 µg/mL; binding result (tau fragment 337-368): no binding (tested: 25 ug/ml); binding result (tau fragment 186-350): no binding (tested: 25 ug/ml); EC50 (read off the curve) (aggregated dGAE [6]): ~0.05 µg/mL; Kd (dGA (tau 297-390)): 0.447 nM; koff (dGA (tau 297-390)): 0.00035 s⁻¹; kon (dGA (tau 297-390)): 783000 M⁻¹ s⁻¹; EC50 (read off the curve) (tau fragment 369-391): ~0.5 µg/mL; EC50 (read off the curve) (tau fragment 369-390): ~0.4 µg/mL
412G11 (scFv) scAb: QVRLQESGPSLVKPSQTLSLTCTVSGFSLTSYALGWVRQAPGRAPEWIGNIWRGGRIEYNPALKSRLSITRDTSKSQVSLSLSSVTTEDTAVYYCSRSGGDWGPGLLVTVSSEGKSSGASGESKVDDQAVLTQPSSVSGSLGQRVSITCSGSSSNVGYGNYVGWYQQVPGSAPKLLIYGATSRASGVPDRFSGSRSENTATLTISSLQAEDEADYYCASYDRSESVVFGSGTRLTVLG | – | – | – | – | – | – | – | – | – | EC50 (read off the curve) [10]: ~2 µg/mL; EC50 (read off the curve) [11]: ~2 µg/mL; EC50 (read off the curve) [12]: ~5 µg/mL
3aG3 scAb (scFv, not shown: small tags and cut ends, scAb) scFv: QVQLQESGPSLVKPSQTLSLTCTVSGFSLSSNGVGWVRQAPGKVPEWVGDISSSGKAYANPALKSRLSITRDTAKTQVFLSLSSVTTEDTAVYYCVRCRDGGVSYGYDIDYWGPGLLVTVSSEGKSSGASGESKVDDQAVLTQPPSVSGSPGQRVSITCSGSSSNIGGGNYLSWFQQVPGSAPKLLIYGATSRASGVPDRFSGSRSGNTATLTISSLQAEDEADYYCASFDTSSGGIFGAGTRLTVLG | – | – | – | – | 6.1 | 0.000387 | 62900 | – | – | EC50 (read off the curve) (tau fragment 1-111): ~0.5 µg/mL; EC50 (read off the curve) (tau fragment 1-49): ~1 µg/mL
CE2 scAb (scFv, not shown: small tags and cut ends, scAb) scFv: QVQLQESGPSLVKPSQTLSLTCTVSGFSLTNYPVGWVRQAPGKALEWIGNIENDGSANYASALKSRLSITRDTSKNQVSLSLSSATTEDTAVYYCGREFGGSDGYTYFVDIDYWGPGLLVTVSSEGKSSGASGESKVDDQAVLTQPSSVSKSLGQSVSITCSGSSSNVGYGNYVSWFQQVPGSAPKILIYGATSRASGVPDRFSGSRSGNTATLTITSLQAEDEADYYCASYDGSSSGVFGSGTRLTVLG | – | – | – | – | 5.03 | 0.00108 | 214000 | 5.03 | – | EC50 (read off the curve) [13]: ~0.1 µg/mL; binding result [14]: binds
CA4 scAb (scFv, not shown: small tags and cut ends, scAb) scFv: QVQLQESGPSLVKPSQTLSLTCTVSGFSLTSYSVYWVRQAPGQALEWISIMYASGRVDYNPALKSRLSITRDTSKSQFSLSLSSVTTEDTAVYYCTRGIENWGPGLLVTVSSEGKSSGASGESKVDDDIQVTQSPSSLSASLTERVSITCRTSQSVNNYLSWYQQKPGQAPKLLIYYATRLYTDVPSRFSGSGSGTDYTLTITSLEADDTATYYCLQYDSTPLAFGGGTNVEIK | – | – | 0.37 | 6 | 3.61 | 0.00165 | 458000 | 3.61 | 3.6 | binding result [15]: binds; EC50 (read off the curve) (dGAE (tau 297-391) [16]): ~0.3 µg/mL

Reference: patent publication US20250355001A1 (GTINVENT, published 2025)
